{
  "source": "patent US20120041056A1",
  "about": "“NUCLEIC ACIDS SPECIFICALLY BINDING WITH HUMAN FACTOR VII/VIIA AND USES THEREOF” (LFB BIOTECHNOLOGIES, published 2012)",
  "key": {"[1]": {"target": "T1, Factor VII/VIIa (FVII HP, plasma-derived) (Homo sapiens, UniProt P08709;P08709 P08709:61-212,P08709:213-466)", "test": "SPR; FVII immobilized, aptamer 1 uM; much higher affinity than other family 2 members; 10 mM CaCl2, 4 mM MgCl2, pH 7.5", "settings": "tags: none; purified from human plasma (98-99% purity)", "protocol": "A series of 27 nucleic aptamers of the invention (purity: 99%), having a length ranging from 43 to 66 nucleotides depending on the aptamers, were diluted in running buffer (50 mM Tris, 50 mM NaCl, 10 mM CaCl₂, 4 mM MgCl₂, pH 7.5) so as to obtain three aptamer samples. Each aptamer tested was injected at a final concentration of 1 μM in the running buffer.\nEach sample was injected sequentially onto the same chip (solid substrate) containing the immobilized human FVII. Controls are obtained by injecting blanks containing only running buffer. All the injections were carried out with a flow rate of 30 μl/min for 60 sec; after the injection, running buffer was injected onto the chip at an identical flow rate, for 120 sec. Elution buffer (5 mM EDTA) was then injected for 60 sec with a flow rate of 30 μl/min in order to detach the aptamer from the immobilized human FVII. The chip makes it possible to study, in real time, the formation and the breaking of the interactions between the immobilized human FVII and each of the aptamers tested, by means of surface plasmon resonance (SPR). Binding to the immobilized human FVII is reflected by an increase in the signal, in resonance units (RU), recorded by the apparatus (figure E1). These analyses are carried out with the RPS Biacore T100 apparatus (GE). The modeling of the interactions recorded is carried out using the Biaevaluation software (GE)."}, "[2]": {"target": "T1, Factor VII/VIIa (FVII HP, …)", "test": "pulldown; affinity chromatography on streptavidin gel; CaCl2/MgCl2 buffer pH 7.5, eluted with 10 mM EDTA; Mapt2 core in low affinity group by SPR (Example 11)", "settings": "tags: none; purified from human plasma (98-99% purity); label: 5'-biotin", "protocol": "Gel equilibration: 0.050 M Tris-HCl, 0.010 M CaCl₂, 0.05 mM MgCl₂, pH 7.5, elution: 0.020 M Tris-HCl, 0.010 M EDTA, pH 7.5, 240 μg of human plasma FVII purified to 98% is injected with a flow rate of 0.5 ml/min in equilibration buffer."}, "[3]": {"target": "Factor VII, rabbit plasma (hydroxyapatite eluate) (Oryctolagus cuniculus, UniProt P98139;P98139 P98139:40-191,P98139:192-444)", "test": "pulldown; affinity chromatography; 0.2% step yield in eluate, rabbit FVII not retained", "settings": "tags: enriched from rabbit plasma; label: 5'-biotin", "protocol": "Gel equilibration: 0.050 M Tris-HCl, 0.010 M CaCl₂, 0.05 mM […], pH 7.5, elution: 0.050 M Tris-HCl, 0.010 M EDTA, pH 7.5, 36 μg are injected into the gel with a contact time of 10 minutes. The elution is carried out by injecting 2 ml of elution buffer.\nThe fractions are analyzed for their amidolytic activity by chromogenic assay using a Stago kit according to the supplier's recommendations (factor VIIa StatClot kit). The amidolytic activity is then converted to pg of FVII contained in said fraction."}, "[4]": {"target": "Factor VII, recombinant rabbit (Oryctolagus cuniculus, UniProt P98139;P98139 P98139:40-191,P98139:192-444)", "test": "SPR; no binding to rabbit FVII/VIIa", "settings": "label: 5'-biotin", "protocol": "Each sample was injected sequentially onto the same chip (solid substrate) containing the Mapt2 aptamer immobilized by means of a biotin-streptavidin interaction. Controls are obtained by injecting blanks containing only running buffer. Signals corresponding to the background noise are obtained by injecting the same samples onto the reference cell containing the immobilized some nucleic acids or other, these signals are subtracted from the signals obtained on the active cell. All the injections were carried out with a flow rate of 30 μl/min for 60 sec; after the injection, running buffer was injected onto the chip at an identical flow rate, for 120 sec. Elution buffer (15 mM EDTA) was then injected for 30 sec with a flow rate of 30 μl/min in order to detach the human or rabbit FVII from the aptamer. The chip makes it possible to study, in real time, the formation and the breaking of the interactions between the FVII HP and the immobilized aptamer by means of surface plasmon resonance (SPR). Binding to the immobilized aptamer is reflected by an increase in the signal, in resonance units (RU), recorded by the apparatus (FIG. 8). These analyses are carried out with the RPS Biacore T100 apparatus (GE).\nThe modeling of the interactions recorded is carried out using the Biaevaluation software (GE)."}, "[5]": {"target": "T1, Factor VII/VIIa (FVII HP, …)", "test": "SPR; aptamer immobilized; 50 mM Tris, 50 mM NaCl, 10 mM CaCl2, 4 mM MgCl2, pH 7.4; about 1:1 stoichiometry (Example 4)", "settings": "tags: none; purified from human plasma (98-99% purity); label: 5'-biotin"}, "[6]": {"target": "T1, Factor VII/VIIa (FVII HP, …)", "test": "SPR; FVII immobilized; 10 mM CaCl2, 4 mM MgCl2, pH 7.4; eluted by 5 mM EDTA", "settings": "tags: none; purified from human plasma (98-99% purity)", "protocol": "Each sample was injected sequentially onto the same chip (solid substrate) containing the immobilized human FVII. Controls were obtained by injecting blanks containing only running buffer. All the injections were carried out with a flow rate of 30 μl/min for 60 sec; after the injection, running buffer was injected onto the chip at an identical flow rate, for 120 sec. Elution buffer (5 mM EDTA) was then injected for 60 sec with a flow rate of 30 μl/min in order to detach the […]. The chip makes it possible to study, in real time, the formation and the breaking of the interactions between the immobilized human FVII and each of the aptamers Mapt2, Mapt3 and Mapt7 tested, by means of surface plasmon resonance (SPR). Binding to the immobilized human FVII is reflected by an increase in the signal, in resonance units (RU), recorded by the apparatus (FIG. 2). These analyses are carried out with the RPS Biacore T100 apparatus (GE). The modeling of the interactions recorded is carried out using the Biaevaluation software (GE)."}},
  "data": [
    {"binder": "CCGCACGCTACGCGCATGAACCCGCGCACACGACTTGAAGTAGC (ssDNA)", "note": "[Mapt2.2 core sequence]", "values": [
      {"measurement": "binding result", "setting": "[1]", "value": "binds"}
    ]},
    {"binder": "CCGCACACCACGCGCATAATCCCGCGCACACGACTTGAAGTAGC (ssDNA, 5'-biotin without spacer)", "note": "[Mapt-2 core (5'-biotin)]", "values": [
      {"measurement": "binding result", "setting": "[2]", "value": "binds"}
    ]},
    {"binder": "Mapt2 (biotin-PEG) (ssDNA, 5' spacer of 4 PEG(C18) and terminal biotin) DNA: GGGAGATAGCCACGACCTATGCAGCCAGCCGCAGTGTAAGTGAATGCAGACATGGTCTAAGTGTCCAGGCTGTGCGAAAGC", "values": [
      {"measurement": "binding result", "setting": "[3]", "value": "no binding"},
      {"measurement": "binding result", "setting": "[4]", "value": "no binding"},
      {"measurement": "Kd", "setting": "[5]", "value": 99.9, "unit": "nM"}
    ]},
    {"binder": "Mapt2 (ssDNA) DNA: GGGAGATAGCCACGACCTATGCAGCCAGCCGCAGTGTAAGTGAATGCAGACATGGTCTAAGTGTCCAGGCTGTGCGAAAGC", "values": [
      {"measurement": "binding result", "setting": "[6]", "value": "binds"}
    ]},
    {"binder": "AGTCTCCATGTTGCGAACCGAATGGTAAGGGGATCGTACACTAC (ssDNA)", "note": "[Mapt7]", "values": [
      {"measurement": "binding result", "setting": "[6]", "value": "binds"}
    ]},
    {"binder": "CCGGAGACGCGCAGCTCCTATACATGCGCACATGACTTGAAGTC (ssDNA)", "note": "[Mapt3]", "values": [
      {"measurement": "binding result", "setting": "[6]", "value": "binds"}
    ]}
  ]
}
